Experimental data reported in the DeepSol protein solubility set.

test: soluble on expression in E. coli; label from the status in PepcDB or PDB records

Sequence | soluble on expression in E. coli
MWWREKLFDGLRALELTKKTLKNKKERESMNQEELDKKLKKQEILVKDEKVWSYTYEDHISSIVKEAEKKGSFDHLPGKGKPLNLDKDLSYNPEKQLYRTLKNNHVLPRWIELSKEIDDLKEKLKENTNTAETADLIRTINKKVLEHNLLCPPSAQKTRVKTDFLEHHHHHH | soluble
MYCHAKLKNISQHTVISAHLFLPDYSPMNRDSFYPAIACFPLLLMLAGCAPMHETRQALSQQTPAAQVDTALPTALKMVGQTANGGWSITIINSLPLEHHHHHH | not soluble
MYDFKKINNLRGIERETLRVTDCGNLATSNHPDGLGHKLTNNSITVDFSENLLELITKPHDSIDKAIGELYQLSAFTLDNMHSDEIILNTSMPLSANDNDIQEADFGSSNSGRMKRVYRKGLSARYGKIMQIISGIHYNFSFDKDLISNIATNKQVSISDIYFDVLNNYFEFMWLLPYLFGASPICAKTSVKNKPDYLSVLDDKFYVGEYATSLRMSDLGYTSPAQKDLAISYDNVKAYVKDLIQATDDTFADYKRIGLYNSQGQRIQLNDGILQIENEYYSAIRPKQIAKRGERPACALYNRGVEYVEVRVLDVDPFEPVGISKDTALFVEVMLMTCLDKDAKKYHKDIIKQAKQNLTAVAIQGRNPQLKLKKLDDDSEILLKDYALELFDEIEAVAKKMPKEYLDAVEIQKRKVLDISQTPSAKIIELARQHGYKKFILDISRRVSQQFRSYELPAAIVAKLKDQAGQSVAAEKELVANDKISLDEYINRYYKSSKGCC | not soluble
MYDVVVVGAGPAGSRYARQAASRGLDVVVFEQGEIGKPLACSGHVSTDIWEFTEDARDELFQNEISGARFHTGGPGSQDHPFYKDEVISNVIDRVGLDKHLAGLARDAGADVREAHSVVGVTEDRDGVTVEVRGDDGVETHRAKMVAGCDGPKSRVRRELDLPEPDELLHGVLGFSDEVDHGDFVDVHLTVPRFFAWRIPRGEAGVEYGLAVPPGDDARGRFEEFVDGYGVETDHRCSGLIPIGPPKRVTGRRSFLIGDAAAQTKPFTGGGIRYGMTAADHAAREIDPEDPATLGEYERAWRDDLRQEIRLGHAVRAGYSAPEPIQKAGMKAFEGEIGVHMDRPTTLFSREQLAALFSRSLEHHHHHH | soluble
MYEQACTTILVGKKATVDGSTMIARNDDTFMPITPQKFIVHPAVHGRNETLTSGKNGFTAPLPADGYRYQAVPNIEVAEKGVFEENGFNEKNVGVSSTESVYGNEHTLTFDPFVPNGLAEDSLPTMLTPFIDSARGGVEYLGQLIAKYGSPEGNGVLFNDKDDVWYMEIVTGHHWVAQRIPDDAYAVAANQVAIQWVDFDDPDNFMWSDGIQEFVAEHHLNPDKEGFNFRHIFGTDNEKDRHYNTPRVWYGQRYFNPEIEQDPQSSELPFICHAAKKISVADVEFVLGSHYNETKYDPFLNTPEAKKFRPISMNRTQNSHVMQVRNDVPAEQSAIMWMTFGVPAFAPYLPFHANVSETDPSFANTPLKHDMNSAYWLYRTLSMIVESHYADFVQDDIDYLKECRIELGQFVAATDEQAAKLSGDELTAFLTEQDKVMVAKMRDKAQALIGQLVTKGLTLSKLTYNVDINLLEHHHHHH | not soluble
MYETQVQELSPEEAKRLYDQGVPFFDVREVEEYAQARIPGARLLPLSEFMARYGEIPKDTPVVLYCRTGNRSWQAAAWLSAQGYRVYNLEGGIVRWYRAGLPVDTTPMEAAYRATPYQEVGPEEAKALLEEAFVVDVREAWEYGEGHVPGAVNIPLSTLPQRLAELPKDRPILLVCNSGNRSGVAAEFLVAQGFDGERVYNLEGGTYAWASRGLPLER | soluble
MYETYHSGWIECITGSMFSGKSEELIRRLRRGIYAKQKVVVFKPAIDDRYHKEKVVSHNGNAIEAINISKASEIMTHNLTNVDVIGIDEVQFFDDEIVSIVEKLSADGHRVIVAGLDMDFRGEPFEPMPKLMAVSEQVTKLQAVCAVCGSSSSRTQRLINGKPAKIDDPIILVGANESYEPRCRAHHIVAPSDNNKEEL | not soluble
MYGILCLSLRRIFQWHTYSMVRIHSLNTMNILTNLEFSFPILYSYETLNTMLRKQRRLYMPRTNYIDIMEKNHMEIPWHDYTNADSNALIANADLIEKASVIGRVGLIMLSCGTGAWRVRTSMNKLSKELGVTCTVDVGLMSIEFNCFDGNDCVSQSLSIANTGVNTSKLYRMEQFVDNFPNEEAHLTGEMIHKRLDEIEQIHTLYSPVKLG | not soluble
MYIGIDLGTSGVKVILLNEQGEVVASQTEKLTVSRPHPLWSEQDPEQWWQATDRAMKALGDQHSLQDVKALGIAGQMHGATLLDAQQRVLRPAILWNDGRCAQECTLLEARVPQSRVITGNLMMPGFTAPKLLWVQRHEPEIFRQIDKVLLPKDYLRLRMTGEFASDMSDAAGTMWLDVAKRDWSDVMLQACDLSRDQMPALYEGSEITGALLPEVAKAWGMATVPVVAGGGDNAAGAVGVGMVDANQAMLSLGTSGVYFAVSEGFLSKPESAVHSFCHALPQRWHLMSVMLSAASCLDWAAKLTGLCNVPALIAAAQQADESAEPVWFLPYLSGERTPHNNPQAKGVFFGLTHQHGPNELARAVLEGVGYALADGMDVVHACGIKPQSVTLIGGGARSEYWRQMLADISGQQLDYRTGGDVGPALGAARLAQIAANPEKSLIELLPQLPLEQSHLPDAQRYAAYQPRRETFRRLYQQLLPLMA | not soluble
MYIQVLGSAAGGGFPQWNCNCVNCKGYRDGTLKATARTQSSIALSDDGVHWILCNASPDIRAQLQAFAPMQPARALRDTGINAIVLLDSQIDHTTGLLSLREGCPHQVWCTDMVHQDLTTGFPLFNMLSHWNGGLQWNRIELEGSFVIDACPNLKFTPFPLRSAAPPYSPHRFDPHPGDNLGLMVEDTRTGGKLFYAPGLGQVDEKLLAMMHGADCLLVDGTLWEDDEMQRRGVGTRTGREMGHLAQNGPGGMLEVLDGFPRQRKVLIHINNTNPILDENSPERAEVLRRGVEVAFDGMSIELLEHHHHHH | soluble
MYIVIMGAGRIGTLVARMLESEGHDVAIIEMNRERAREISEYISGLVIEGDATDQKVLENANIKNANAFAALTGKDDANILACILAKHLNPNIMTILRITDPGKKKIFEDVKELKTYFDIVVSPEDIAANYIFRTLVTPGFNRVLLPREGAEIIQFQIDEDCEVAGKPVKELNLPKDSLIIAVYDEKGNLTIPSGDTIIPKKGQVIIFAKNSALQEVKKIMEKKKKEQ | soluble
MYIVNSNKSRGSSVERYIVSRLRDKGFAVIRAPASGSKRKDHVPDIIALKSGVIILIEVKSRKNGQKIYIEKEQAEGIREFAKRSGGELFLGVKLPKMLRFIKFDMLRQTEGGNYAIDLETVEKGMELEDLVRYVESKISRTLDSFL | soluble
MYKATVIIKLKKGVLNPEGRTIQRALNFLGFNNVKEVQTYKMIDIIMEGENEEKVKEEVEEMCKKLLANPVIHDYEIKVEKIE | soluble
MYKLSGKAVEDFRGIYDYTLGKFGDEQADRYTDSLGTFLDTLSQMPEIGQDYDAIPEVKKIAFRFHTVYYVIRVDDILIARILHQLMEPRRHW | soluble
MYKPKNINSVLTFYKDQIQLVVSDDQNQFNILFYQTIDNDGFYSKQQLKNKLRLKLALNQLVDQANYFLGFKLEKVVVVLAELIDDLKIHNFKSEIFFTGYDFDHKAMIKKEKQRFCEQNNQLTVMDTMVLNYHDVINNKITKSFAFNKSYVANLVAYSSKSNLIGELKFFLKRNVNLKVKKIISHHLALANSLSKKQNNMFVYLGQKTTELMLFMDNALVDVITNQFGKNHFIDIPANQENKPLLEFLVDNTTKIGDCYSLGMTYTDGDSYKEIKALTIGDLMQTVSDKIKTLIDFINSGSLTFFNKFKTLPKLLYFYTRSKQITNLFQANVALINPQFKTVDIYKNKIQFISENYLLSCEAISLQITNRIKNQISFDFTNADNIQKPKPKKHFMILSKHLTKFVQRLVK | soluble
MYLACLAKFSQNVELRKMLFRTQDMYLVEASGNDAIWGNGIWKEDKRSDDVANWHGTNYLGEILDRIRGELIGKPEFAAEKEAVQLESLEQRIQMLMA | not soluble
MYMSSLQSTRERVLGTPRRRYKVLVAKMGLDGHDRGAKVVARALRDAGFEVVYTGLRQTPEQVAMAAVQEDVDVIGVSILNGAHLHLMKRLMAKLRELGADDIPVVLGGTIPIPDLEPLRSLGIREIFLPGTSLGEIIEKVRKLAEEKRMREEAEASEQVGQA | soluble
MYNDPRSHGLWEKTAPQPPVTPALQGDAVADVVVVGGGFTGQSAALHLAEGGLDVILLEAKEIGFGGAGRNVGLINGGMWVMPKELPDVLGETYGERLLDLLGDAPVLVRELVEKHGIPCEIEKNGTLHCAVGEKGLAEIRERCEQWSARGAPVRVLDADETASYIGSTAYSGALLDSRAGTIQPLAYVRGLAGAALKAGVRLHTASPVNETGRNGAKWVVKTPEGSVTAKWIVVATEAYSTGPWQIIREEQVYLPYFNFATRPLSDNLQKSILPGRQGCWDTKEILSSFRMDKAGRLVFGSVGALRGTGTAIHRAWAKRSLKRLFPQLGDTEFECEWYGQIGMTDNAVPRFHKFAENVIGFSGYNGRGIAPGTAFGKVIAQHILGEIAEADLPLPVTEPKAQAFRAVKEAYYEAGAQIAHFAGERFLEHHHHHH | not soluble
MYNGIGLQTARGSGTNGYVQSNLSHLMQARRKIEYNGEDDLRKMEAELNRKPNEEIMDHNRKRQIEVKCTEFEMLLEDKGLDDEDIERKVGEYRKNLLKQLESGELNVDEELSTKESHARRRAAANNRDKMRNALGLGEDYVPGSSMAKMNKSDVVGAAMESELPQKDDKEKLLETLRLHRKSKKKQESSSSSSSSSSSSESSSEDEKHRKDRKKKEKKQKLKEMEKRREKLRQKERELLAVSDKVKKEEPAESSDEEDSRKDQRKPREDRRRSVERQDQREDRRDRRRSPEDPRERRRSPEDRTVRRRSPERRRQQRSPSVERRKSPQRRDERRRRHDSSENERRSTATASKKSRMDELEVKQEPPSDSEDYIAKTNLAPIRVEKSAEKVEKSRKSSSESSSGSSDSDSSSDSSSSSDSSSDSE | not soluble
MYNKDDVLKQADNIANKIKNLDTIKTYQQIEAQIHQNQTIKTKMDMLKKHQKQAVNFQNYGKQNALEQSEHTIQSIEAEINTLPIVEQFQTSQYEANQLLKMFVSTMETRLNDHNKAKHSDLEHHHHHH | not soluble
MYPQQTSAAVGARKMRVVGVVEETHDARSILVEPHPEHIDAFDYRPGQFLTVRVPDVGSGTARCYSLSSSPHVDSTMKFTVKRVAGGHGSNWLCDEIALGDELEVLPPAGTFTVRSLDQSVVLVAGGSGITPVIAIAKSILHAGTGTVLLVYANRDERSVIFGEQLRELGERFGSRFTVIHVLESVQGYLTAPAMSNLIRPFTDRAVYICGPEPLMKLVKAVCSAEGIAPSQVMTERFVSLSTDPFRNPVEDKPSTSDTGVEVSAQDEAAAGDCTVHVSLDGTERTVAWPRSKRLLDALLDAGVEAPFSCREGACSACVCSLTEGEVRLVRNEVLEADDLADGYILACQAEVVTDQISIKY | not soluble
MYPSIKETMRVQLSMEGSVNYHAFKCTGKGEGKPYEGTQSLNITITEGGPLPFAFDILSHAFQYGIKVFAKYPKEIPDFFKQSLPGGFSWERVSTYEDGGVLSATQETSLQGDCIICKVKVLGTNFPANGPVMQKKTCGWEPSTETVIPRDGGLLLRDTPALMLADGGHLSCFMETTYKSKKEVKLPELHFHHLRMEKLNISDDWKTVEQHESVVASYSQVPSKLGHN | soluble
MYQNILVPLDGSDNAYMALKHAVKLAQTFKSKLFLVNVIDITRLNAYSPAAYGGTLYTNLLKVAKDNSQDILDRGQQMASAAQVESLPIQVNSSPKASIATDIPKKYAIDLIVMGKSGTNAVSRILLGSTTAYVVQKAEVNVTVIN | not soluble
MYVNKQEIIKNIQKLSPKSPAEYIEKDGCFMLTCPENTYPSFFSQFQYSEIPPPGNLIPQNALEISPPTSLEEMGGASLSEYFGIICDDGVWKLTKYPNGITFNKDPPSYTNGSLNGYKTEIFTMNCY | not soluble
